Source: the supplement of paper PMC12636428

Test system: Saccharomyces cerevisiae
Assay: transcriptional activation domain activity (GFP:mCherry ratio, weighted mean of sorted bins, harmonized to initial dataset scale) (arbitrary fluorescence ratio units); higher = stronger transcriptional activation
Conditions: beta-estradiol 1 µM; induction time 4 h
Procedure, shortened: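 Sorting into 8 bins by GFP:mCherry ratio followed a 4-hour hold at 30 °C after cultures were diluted 1:5 into SC with 1 uM beta-estradiol. The yeast diploids carried a GFP reporter and had barcoded protein tiles, fused to an estradiol-inducible synthetic transcription factor, integrated at URA3. Barcodes were then sequenced, and tiles with under 50 reads were removed. Activation activity is the read-weighted mean of bin median fluorescence, averaged across barcodes and linearly mapped onto the initial dataset scale.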

| Sequence | transcriptional activation domain activity |
| --- | --- |
| KGRAEKKKKSSRRRDESESEGEEGEGGGGGGGRAPPKKRARLASKKEAQSGKY | 31500 |
| MPRKAAAATTEIPAEPRRSSRIKEQPKVEPAPKKAPAKPRGKKAKAAEAEAAP | 13000 |
| LASIVMFRTFHEGSTWTGLTRTRMFWYVFLFSFFWYWVPGYIMPILSFFSILC | 69200 |
| VRVRVRVQGREQVQVQVRELHPEQGHPHQEQEPLHLAREHHPELHQQKDQEHL | 52900 |
| GAGPVGYGPQGAGEGDGESKSDSETMRTATTQPPPKPKQLYFIYVLASHYGLG | 61700 |
| SNDGEDENGDGVSNEKSGRKKGKGRRKRGKDQAQVKGDQEPQDGEAGGEGGAE | 21600 |
| LLICSVVALVTCLAFLTNLTSMVPNFVLACLPLTAFLIFGTHSDLLRVWCFWW | 28700 |
| MGLGVLYHLSLLFPSFSFFYLSSSFPPFFFFFLLLWLFPISCLGFLVLFWTGS | 61300 |
| EDGESTKTKDAGRKRKRSTGEGEREDKGADGTKENKKKRKLASEKEKESDKEN | 27400 |
| SRLFDLQLNICLSFQVYWFRNLVDGFPLDIPPLHIASFFGLVEPLTALLKSLG | 33100 |
| YGARPAAAAEEEEAAEPAEEEAAGEATEAEAGEEEAEATGEEETAEGEGAEGA | 25500 |
| PRFLMYCKLGICQLVILRLFTSTFTIVLEMMGLFCPESMSWRFGHFWAVLFNF | 63600 |
| TWLLFRQVVDVILINDFLAYCMFAFSCFRVPTDLSIPVHVMRWLVGITLIWFN | 74100 |
| MFSCLLFLAYLPAISLIPCDCFWVFFFFFFLGCVKTRVLYLFFFFLCCSWFFY | 47400 |
| VALTFYFLFLLFLILLRLGLISCFVFFNFWYIYHFFYLSINLSIFFISFHSFI | 78300 |
| LEEIHILERLYYKSKNQHHASLFWRKLTEIRRVTTRLLKFNVTETVASIPLAF | 59200 |
| LKIYLLNPLHMTRFADLLYQGAIMNRVIQPYESHLQYLLQWMCDYNLYGCGYI | 75800 |
| DAYLLWGPGFIPTVCHIHDFPLLLPVAIFLVYINLSSCHLDPLISFLFLPLFG | 66500 |
| FANWLGLQKNGMGMRLFPFFIFSLFFLSFFSLFWGFSFFFSFSFFFGFSFFWF | 23100 |
| LLYVMALLMWLFAIAILFPPSALTVVRHDFLEQIPQVVPNLDVAYGRNIEGVK | 41800 |
| MFFFLLLFIIVMYGCLVCEVIHTSFVGLIMVSTLMLNAFSCFMSFTYFLFFLF | 59000 |
| ASVVQWLGFHPSKVEVRVRFTAVANKRSSRTSLLLLVVWSWRRQRWMLRWSSG | 49300 |
| ADEEDADEEDADEEDAGEKDAGEKDAGEEGAGEEDAGEEDASAIDAAACRMVQ | 29800 |
| MPVLPKSSSTKRAGAPKAKGAVRAKSGCYTCRIRRKKCDENPDDAGQCQTCVR | 36600 |
| MGLPYFWFYKHTCFSVNYVSSLFVLFFFYFLVGVVGYVTMGLVIFFLFFFLFF | 70300 |
| GDSTNGNNSPVEDEANLRRKAKKRREKEREREEKKRVGRREKAKKTNGGEKQG | 27000 |
| IHSMYRPFQMLTMDFMVMNLCLFSAILLGILYLFFGAFHLVFTVVYDFKLWQV | 43200 |
| GKVFILLRIWFFRQRSLSLYRTLLSSYLVERSPLFTSTMGVFGLDRKLLVKTA | 62500 |

| Sequence | transcriptional activation domain activity |
| --- | --- |
| RGKSSSSSIGGAQEGAVRADETSHHHHHHHHQQQQQQQQQKQQQRHVQEQADI | 30600 |
| LREGGVLAVDGTSVGSVEVIYSYSIVVHTRITFRVVARVGRCLVVCLVRWDFY | 38200 |
| KKEGEDGKGKRKVVVYVGNAKFVTQREEGRDAFSASLASFDAQESAHGRTTIY | 75600 |
| FSYFYCFFFPLFTFFLFHIFVLLSIKQFLFLFLFVFLFLVLLFIVPPLFPVSV | 17300 |
| SAEHQTEAYESDGGRQCVRLLLTSYCSPILIVALHPVLPGRFLCVVKLATQKS | 39900 |
| AFVNFIYVEDLLNFARTKLGVKWYFSHNLCIYVITHLLHRNMFSSEKVLQMSY | 83400 |
| LSDDEEEEGGKGREGEGRERKRRGREGKRKGGEERGRGRGREGEREGGEGEGG | 27300 |
| MSSSPTTGTSQDVQNRTVFTSRRRTAVACTNCRRRKLRCIPARVEEPATGPCA | 35800 |
| QESEAVTEKCKNRLDITSEELERVLLQKEGESLKDNAVQQRQGAGGKRAIGKA | 23500 |
| SRSRSRRRKSSRRRRRDRSEDAESDDHRARRRHKSRKHSSRAGDDEDGKGRSR | 26100 |
| EQAPREGQGQGRGRGGRPRGEGRGRGGRGRGRGAPAGNGAAEAAATTAPKSTE | 21700 |
| ELLNAIVLVHMKLETGDLPPIVSRHIGRFAEQVLSKTPIHLIVTTSFRTLHKI | 73400 |
| GEKAEGANGEGSGAEGSRRRPSGRGRGRGRGRGGRGGRGGRATNEAGDEKKEG | 22500 |
| VRLLIRCTRRSLYFWACLCCSWGIILHSLFITLANFNVLQSYGSIVIIHLTWC | 74300 |
| LDIGHWMSSYNLLRRQSTKRYMIIMDLTRRFNTRTPNLLYLIQWGFVWGVSYY | 57900 |
| ITNFSHPVSWLGTISPLSSLISSSLSFLSEFFSLFPLFFSFFLLFSPSISSWF | 67500 |
| MQADNLPFMCVCPYFLSTYSSSLSLVFPLFFFLCLFLLFPFFAFLLLLSLFSC | 44500 |
| MRQRLGGQLFSKSFFYALLVTSTWSSKLVYLSPHFTSLPPLLILLYAPTFLLL | 60600 |
| MQASFIFLSFTSGVIHTYILYLDLVAYFLLSLGGFVLIIGFWRWGFFFSFFPF | 55400 |
| EEEESAAAAKKMAAVKTRKARAGSPKTKSARKATSTRPTSKTKGGAKAKRAAA | 20900 |
| WTCVRRPGGLGGFFFGTWTGWQIWVGLLVFWVGGCTFGLLLMNRFLLLTGVYK | 42000 |
| MGNKQDGVSGLGFMLISFSCLLLEWLTCAVSSILLSSEFWELSLVCLTLFWFL | 28900 |
| YFEIAGLTFFFYWYFYLLVGGIDCAWNKFVYVMVSHMSTMIVHVQITLSHFAM | 32700 |
| IHVESRLPEMRATLEPKRYVHVARFFSHLIIYFRLLHRPLPASTCNSMLRHYV | 47400 |
| MFYFLLLYQSIVFLPYIFFSQFLIWVWCGLGREPGWHLEHGVYRYRWVRILSI | 39300 |
| MNQTSRFFSPFFLFLFLLFLSFLSPPPFLPSSLPFLLFLPFLPLSLSLLSLIF | 15400 |
| MWCTRWVLPFLLLPAPTSPPYFVLIFLLSLVMHARPCIYCIFFLIMLFITSNY | 47000 |
